From patent US20100016408A1 (NEW YORK UNIVERSITY, published 2010)

B1: FLAG-tagged Fbxw4 (other, UniProt P57775 1-412, looked up)
chain: MAAAAGEEEEEEEAARESAARPAAGPALWRLPEELLLLICSYLDMRALGRLAQVCRWLRRFTSCDLLWRRIARASLNSGFTRLGTDLMTSVPVKERVKVSQNWRLGRCREGILLKWRCSQMPWMQLEDDSLYISQANFILAYQFRPDGASLNRRPLGVFAGHDEDVCHFVLANSHIVSAGGDGKIGIHKIHSTFTVKYSAHEQEVNCVDCKGGIIVSGSRDRTAKVWPLASGRLGQCLHTIQTEDRVWSIAISPLLSSFVTGTACCGHFSPLRIWDLNSGQLMTHLGSDFPPGAGVLDVMYESPFTLLSCGYDTYVRYWDLRTSVRKCVMEWEEPHDSTLYCLQTDGNHLLATGSSYYGVVRLWDRRQRACLHAFPLTSTPLSSPVYCLRLTTKHLYAALSYNLHVLDFQNP
notes: not shown: FLAG tag
B2: FLAG-tagged Fbxw5 (other, UniProt Q969U6 1-566, looked up)
chain: MDEGGTPLLPDSLVYQIFLSLGPADVLAAGLVCRQWQAVSRDEFLWREQFYRYYQVARDVPRHPAAMSWYEEFQRLYDTVPCVEVQTLREHTDQVLHLSFSHSGYQFASCSKDCTVKIWSNDLTISLLHSADMRPYNWSYTQFSQFNKDDSLLLASGVFLGPHNSSSGEIAVISLDSFALLSRVRNKPYDVFGCWLTETSLISGNLHRIGDITSCSVLWLNNAFQDVESENVNVVKRLFKIQNLNASTVRTVMVADCSRFDSPDLLLEAGDPATSPCRIFDLGSDNEEVVAGPAPAHAKEGLRHFLDRVLEGRAQPQLSERMLETKVAELLAQGHTKPPERSATGAKSKYLIFTTGCLTYSPHQIGIKQILPHQMTTAGPVLGEGRGSDAFFDALDHVIDIHGHIIGMGLSPDNRYLYVNSRAWPNGAVVADPMQPPPIAEEIDLLVFDLKTMREVRRALRAHRAYTPNDECFFIFLDVSRDFVASGAEDRHGYIWDRHYNICLARLRHEDVVNSVVFSPQEQELLLTASDDATIKAWRSPRTMRVLQAPRPRPRTFFSWLASQRR
notes: not shown: FLAG tag
B3: HA-tagged Cdh1 (other)
chain: MDQDYERRLLRQIVIQNENTMPRVTEMRRTLTPASSPVSSPSKHGDRFIPSRAGANWSVNFHRINENEKSPSQNRKAKDATSDNGKDGLAYSALLKNELLGAGIEKVQDPQTEDRRLQPSTPEKKGLFTYSLSTKRSSPDDGNDVSPYSLSPVSNKSQKLLRSPRKPTRKISKIPFKVLDAPELQDDFYLNLVDWSSLNVLSVGLGTCVYLWSACTSQVTRLCDLSVEGDSVTSVGWSERGNLVAVGTHKGFVQIWDAAAGKKLSMLEGHTARVGALAWNAEQLSSGSRDRMILQRDIRTPPLQSERRLQGHRQEVCGLKWSTDHQLLASGGNDNKLLVWNHSSLSPVQQYTEHLAAVKAIAWSPHQHGLLASGGGTADRCIRFWNTLTGQPLQCIDTGSQVCNLAWSKHANELVSTHGYSQNQILVWKYPSLTQVAKLTGHSYRVLYLAMSPDGEAIVTGAGDETLRFWNVFSKTRSTKESVSVLNLFTRIR
notes: not shown: HA tag

Legend:
[1] = target: T1, Claspin (human, UniProt Q9HAW4 1-1339); experiment: co-immunoprecipitation with anti-FLAG resin from HEK293T cells, immunoblot for endogenous Claspin (FIG. 2A)
T1 construct: also called endogenous Claspin; wild type Claspin
T1 sequence (Q9HAW4 whole entry): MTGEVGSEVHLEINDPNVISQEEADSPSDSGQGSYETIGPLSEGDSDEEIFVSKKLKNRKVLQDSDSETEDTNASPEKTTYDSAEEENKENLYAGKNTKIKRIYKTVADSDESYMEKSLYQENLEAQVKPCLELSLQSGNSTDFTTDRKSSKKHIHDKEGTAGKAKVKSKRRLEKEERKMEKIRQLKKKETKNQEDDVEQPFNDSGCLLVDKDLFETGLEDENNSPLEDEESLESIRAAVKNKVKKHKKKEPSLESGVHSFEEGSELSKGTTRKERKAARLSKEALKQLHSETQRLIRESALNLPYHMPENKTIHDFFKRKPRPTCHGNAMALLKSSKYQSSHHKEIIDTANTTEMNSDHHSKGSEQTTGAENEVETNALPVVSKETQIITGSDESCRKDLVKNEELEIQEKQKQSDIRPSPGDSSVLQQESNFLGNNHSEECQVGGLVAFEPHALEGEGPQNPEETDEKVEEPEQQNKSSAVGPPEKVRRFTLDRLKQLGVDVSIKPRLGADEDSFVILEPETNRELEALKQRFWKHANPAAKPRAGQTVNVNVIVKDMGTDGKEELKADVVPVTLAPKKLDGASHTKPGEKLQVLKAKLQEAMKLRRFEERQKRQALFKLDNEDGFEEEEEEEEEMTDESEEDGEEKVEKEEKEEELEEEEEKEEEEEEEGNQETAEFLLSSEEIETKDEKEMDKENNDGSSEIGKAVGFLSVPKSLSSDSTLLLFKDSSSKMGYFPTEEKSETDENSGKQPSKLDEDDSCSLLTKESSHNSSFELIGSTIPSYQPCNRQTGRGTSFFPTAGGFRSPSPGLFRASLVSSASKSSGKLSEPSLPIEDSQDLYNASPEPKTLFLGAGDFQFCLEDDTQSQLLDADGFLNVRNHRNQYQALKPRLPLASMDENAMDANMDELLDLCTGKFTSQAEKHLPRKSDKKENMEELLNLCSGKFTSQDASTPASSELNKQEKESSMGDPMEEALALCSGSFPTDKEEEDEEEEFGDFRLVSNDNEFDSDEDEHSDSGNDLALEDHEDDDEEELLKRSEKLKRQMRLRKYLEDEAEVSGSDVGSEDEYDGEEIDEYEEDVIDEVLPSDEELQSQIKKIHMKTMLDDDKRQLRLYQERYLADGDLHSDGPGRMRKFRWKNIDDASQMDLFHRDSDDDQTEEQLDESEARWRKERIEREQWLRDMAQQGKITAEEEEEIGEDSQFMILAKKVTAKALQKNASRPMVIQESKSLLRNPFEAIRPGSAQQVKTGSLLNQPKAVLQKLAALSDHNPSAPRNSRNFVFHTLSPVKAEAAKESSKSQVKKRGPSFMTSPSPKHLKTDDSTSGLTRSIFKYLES
Method: To test whether APC/C^Cdh1 has a role in the degradation of Claspin during G0/G1, the expression of Cdh1 was reduced in T98G cells using a validated […] (SEQ ID NO:21). T98G cells were serum starved following knockdown of Cdh1, and the expression levels of Claspin were analyzed at various time points thereafter. FIGS. 2A-D are immunoblots showing Claspin is degraded in G0 and G1 via the APC/C^Cdh1 ubiquitin ligase. […] HEK293T cells were transfected with the indicated FLAG-tagged constructs or an empty vector (EV). Whole cell extracts (WCE) were immunoprecipitated (IP) with anti-FLAG resin, and immunocomplexes were probed with antibodies to the indicated proteins.

[2] = target: T2, FLAG-tagged Claspin(ENL) (human, UniProt Q9HAW4 1-1339, limits assumed); experiment: co-immunoprecipitation with anti-HA antibody from HEK293T cells, immunoblot (FIG. 3F)
T2 construct: also called mutant #3; not shown: FLAG tag
T2 sequence (Q9HAW4 other isoform, or with tags, fused parts or gaps limits assumed): as the sequence (Q9HAW4 whole entry) above, with E90A, N91A, L92A counted along it
Method: (§1) HEK293T cells were cotransfected with HA-tagged Cdh1 and the indicated FLAG-tagged Claspin mutants. Whole cell extracts (WCE, bottom two panels, FIG. 3B) were immunoprecipitated (IP, upper two panels FIG. 3B) with an anti-HA antibody, and the indicated proteins were detected by immunoblotting. Finally, five unique, triple-point-mutations to Alanine across Claspin amino acids 79-102 were inserted, following the pattern of evolutionary conserved residues (FIG. 3E), and these mutants were assayed for binding to Cdh1. […] Thus, these studies identified the motif “EENxENL” (SEQ ID NO:29) located at residues 86-92 of Claspin (SEQ ID NO: 9), as the site mediating binding to Cdh1. Accordingly, in contrast to wild type Claspin, Claspin(ENL) was stable in HeLa cells progressing through G1 (FIG. 2C).

[3] = target: T3, FLAG-tagged Claspin(EEN) (human, UniProt Q9HAW4 1-1339, limits assumed); experiment: as above
T3 construct: also called mutant #2; not shown: FLAG tag
T3 sequence (Q9HAW4 other isoform, or with tags, fused parts or gaps limits assumed): as the sequence (Q9HAW4 whole entry) above, with E86A, E87A, N88A counted along it
Method: as §1

Row | Binder | binding result [1] | binding result [2] | binding result [3]
1 | B1 | no binding |  | 
2 | B2 | no binding |  | 
3 | B3 |  | no binding | no binding
